According to a protein production outcome set (Wang et al. 2014):

Test: label from the status in PepcDB records

Sequence	protein production
MNNSFRNKIHEQSKENLSDDRHKKSDRTLIVFNRKTPLYFYFFEQVRYITGSIYILIETPSSRNLPIYSNICIPISSHPNTNYRPKKRKKNPPTVYLTTIILIMGLLSLEDTIKEKLKDRKNAHFMLVDGMSKLLTEKVKNCQSLDFQVSGVKWRLVIRLSRGRKDHLSFVLEITDEKCTGSTWDVKFNFKIGIVPQTGPDYCFVLVGHQNEKKRSQGLANFISHTDLKERFLVNDKAGFYAEISDVQPNFPVTRIPRTMGTAERFKLIEFSPKNSRFTWKITQFSSFDGEEHSSYEFTVGPRRWKLVMYPKGNGDGKGNSLSLYLFASDYVTNGPKGGTLAIYKLRVLDQLNRNHCETECRYWFPYNPVNQMDSLWGRPKFLPLEELHKSSRGFLVNDQIYIGVEISIVSTTEYL	failed
MSDDDDIQYIKRQRTLHYGSLEESERKRQNAAASGAAATTTSGTTASSGAGTTTTGTGGQLEDIDSDEDYEESTKKTSNAKQAGAPPPTAATLANKIDDDYFDLEMEMERDKVALLEEFERKKRARQINVSTDDTEIKSNLRQLNEPICYFGEGPAERRRRLKELLAGLGENAINKRQYEDEERKQQQREQDQATWYHEGPDSLRIARLWLADYSLPRAKDRLVRAREALEVPSAARAGRMVEMQKKLQSLAPLCSQVGDTRPVSSAAFSEDSSLLLTSSWSGLCKLWSVPDCELKQTLRGHASYVGGVALRPGVKADEENVVAMASGGHDGAVKLWGFNNEESIADITGHMPHRVSKVAFHPSGRFLATACYDSSWRLWDLEQKTEVLHQEGHAKPVHCLSYHSDGSVLVTGGLDAFGRVWDLRTGRCIMFLEGHLGAVFGVDFSPNGFHIATGSQDNTCKIWDLRRRQPVYTIPAHTNLISDVKYQQECGSFLVTCSYDSTTKIWSNKTWQPLKTLQGHDNKVISVDIAPNSQYIATTSFDRTFKLWSPDS	failed
MFNESDAPQPPKVLSTPLEIAANLRQLQESHDPLIITFHDRSHRFQSYVVHVDRESNTLALDEMIPRDGEKFIENGEHFRVEGFHDGVRIAWECDHALKISEVDGHRCYSGPLPQEVTYHQRRNAFRAALKLSQLVDIILDGAHLKGNGAMRGKLLDISATGCKLRFEGNVEDRLQLGQVYERFKAGNPLGLVDTMVELRHLHYEERINTTFAGVRFHNLSGQAQRKIESFVYQLQREARRFDKDDY	not failed
SDDDNPTVDPANIDYTPENASSWHNYMRNVAALLKTDATNLYNAWNSSYKGGESYASLFKAHSGSPYASALSCVEEIVDKCAEIANEVGTAKIGDPYNLYKAGNTEEALYAVESWYSWHSRDDYTNNIYSIRNAYYGSLDGNINANSLSTVIAGANSSLDTKIKNAIQKAAKAIQDIPQPFRNHIPSNETVAAMDACAELESILKNDLKSYIANNSNNINTDAVLNPVVTQYVDAVVVPTYKSLKEKNDALYNAVIVLADNPSNSAFETACDAWITAREPWEKSEAFLFGPVDEMGLDPNMDSWPLDQNAIVQILNSQSWSDLEWSEGDDEAAVESAQNVRGFHTLEFLLYKNGEPRKVQ	not failed
MCDQTKHSKCCPAKGNQCCPPQQNQCCQSKGNQCCPPKQNQCCQPKGSQCCPPKHNHCCQPKPPCCIQARCCGLETKPEVSPLNMESEPNSPQTQDKGCQTQQQPHSPQNESRPSK	failed
RYTNILVPVDSSDAAQAAFTEAVNIAQRHQANLTALYVVDDSAYHTPALDPVLSELLDAEAAHAKDAMRQRQQFVATTSAPNLKTEISYGIPKHTIEDYAKQHPEIDLIVLGATGTNSPHRVAVGSTTSYVVDHAPCNVIVIR	not failed
MKLLSQLLLFTSLTFPLSSFAALGEHPIILIHGFQAGQLQTKPNHDAVVADGKNYWQDYWLAKADDRIDWPSQERVAGKISTDYIWPKLQELSKNNTCKNGCILVTHSTGDLVARHLLDNQENW	failed
DDAGKTAIYWLGYDLPPEIPTIVILHTITGTPSSMRELVRDLHQHTGWRIALCVRRGHADLEFSVPRFNLFGSVSDLKQQLDYIQNHFPQSNLYGVGSSAGSGLLVRYLGEEADEAYFKAAFAFCPGYNTETGFEKVHPVYSQYMAKKLLKTFVYKYIDSWQHVENLEEVLSSKNLTEFHLRYYKLAGFKNYQEYSLATNPMHVFKNIKIPLMVLNSQDDPVCHIDNFEPYIPEIQKLSNIVVVTTKKGSHCAFYEGWTPQSWASRLMANYFLQHHQ	failed
MSTLIQDLKAQAGIFESDADQVHGLLAEFPDPGALLHAAEAVREEGYRHFDTHSPFPIHGMDEAMGLGNASAVGVLTFFGGITGCVVAYLLQWWTAAVDYPLNISGKPFFAVEPSVPIMFELTILFAAFGTVAGMFALNGLPRPYNPLFYSDRFKGATDDRFFLHIAASDDEFDVEDSAAMLQRLGAHHLELVKDDGTVDA	failed
MMRRQRDEQQSRVFYDLSSLVLNLLRSPPMPISLPDHFPDPPARIRPPFSSHRFSSSSPSLAHISPSGFASLLLGISVALMLCGSVTFFIGFLLMPWVLALILVFYVAGIVSAISMVGRSILCYVLTPPSPSGKEISEWKLL	failed
MDIKSETEQYKRKAEIEKHTKEPNKHRDEAVLQNRAGRHRDRAVIDHKSEERERESVQNVTEMSGIERSEGEWSPPVEGITDEELPSHSPMDDLGFALFASWGRKTERQRMGSPDIRIYIFNPIKKIIIMETRIRFGLEWKPSGFGS	failed
MPEASSPASEKSLSRLLLELLWQLAALLIPIFFVTLLPPPAALGVLLGCAAAMTLAARLGWPKTARGLARLMISAAFGLGFSLGRALPAYWDIAAAFTSIFAGLAAVSHLERRLGLVQPSPTPISAWGGNEPQQTPEGQPIRVFNHGEIAMGGPTYCDYLFPDGVLLQGLGSSARFSSDGRYFAAPLPSRQHWGLAILDREQRRLYRCNREHFWELDAFSADTLSGRHSPLVDNGQHQASLNSLLQEAECVELVAVADLWLEPGQWLEALARQDFEESAPHGSHRLHASLALPASLRALEQPLEPLRTPPYRISIDGQPSGLLLRADAPRIWRDDGRALACIAHEQAQPEAACCWLWQADKGWRALPAPWVASHAEPSFYPGPLLSLDRHWLGYSAYLDLAEADHGRYGYRLHSTHSDSETGVGHDRQGCLQVAPLPLTRTQLLQPLDGSGARGESRIQSQPLLGEQRALFSWLTDNPRGLGAYRCQIGTWQLPGCWLLDHRVSDCQRYLALLPWSETLELAPQVVVADLQQQRLIYSPALLAARLLDFRQGRLSLAVLVGRLDPDHASSPLQRFNRPAPAPEHAAAFCTEGPASQPCYERQDWLVIDDQLQPVAPWRLVDRPQAAVAEGDFIQPAPDGRDAAWLFGSETEYADSWLRETSPRLGGHLLTASGCAVGDLAPSLIWSTDARYLALTRLRLGAGDPQQGYRAWQLLLLDVQERSLRIAPDWLRHRPLFQHFDARGLALQLFERDWQAADDPDPGRSLEWALEDLLRLPAEPLREHQGLWLSAADWPQARAWQALRRPAHPAFRAGA	failed
MIEGHGDDSYKYRHPIRSNFSSNVYNKVNLDGLRAHLCGRISAISAYPEPEPYTLEARLADRHALPAASVCVTNGATEAIYLIAQTFRGTNTAILMPTFSEYADACRMHGHKVTSLYTLDAVPEDVRMVWLCNPNNPTGEVRDKKYLTELIAKHPRVCFVIDQSYEYFTLKELFTAQEAAGFPNVILLHSMTKRYAIPGLRLGYVTAHPGLIGRLRTNRMPWSVNQLAIEAGLYLLSEGIPAGLSMKDYLAECARLKSSLEAIGGLEVWPTDTHFMLVCLRFGKAAALKEYLAREEGILIRDASNFEGLDERFFRIATQTPEENDELVGAIAKWMAE	failed
MDLFVMVVGASGIGDGGEQKYNYKLRAWTNEDDPRQTKIVTTNADPEFREVLHLPQNMASSFLNLELFSVNSADTDAFFIGRANTALPMKTNANVYRKIKLQNLDTSGNIVTVGYLEVYLGLETG	failed
AASEAEYGKVSKAWTLHADGSQEYRSSMELTLFTHTAMNSTYGESFIVYNPDFQTLKIHSSYTRQKDGTIVKTPDNAFVEVLPRFAADAPAYNQLKEMVVVHTGLELGATIYLDYSIITKPGYYPALDINERLQETSPVKECKVSISVPEGTPLACGLYGSPVKAVEESHDGIKEVHWTLRNIPASSREAFQPKNREASPHLVASTYPSGKAALATLDKRLKESQGYESKTFAQFLTDKSGNEQEKVNIIRDHILNNLSTCPIPMAMTGYTVRDIDTVLRSAYGTPLEIAQLLNVMLNAAGIPSEVLAVYPGHLDTDACGLAAIQTLAVKATVDGKDQYLSASPLTNRGGLDKVVSLSGTSIEIETTPIQIKESRSVAISADQAKDGFAICVLPAISAGIDSWGMSALNSKRSNLFELPSLIREEVTYTVTPAEGMKLQTSTQEQVISKPFGKVTRTITPRGNTIEVVRTIELNKQQFTPAEYSDVRSLIHEWTNPDNRVLLFSL	not failed
QLSSVTDSKKKKTILDQIFVWEQNLEQFQMDLFRFRCYLASLQGGELPNPKRLLAFASRPTKVAMGRLGIFSVSSFHALVAARTGETGVRRRTQAM	failed
MIVGGRRAPLPRFFSRPVEFAALSLDPEKDPIDVFDDAYFFVHAAFSHVPGKYRGGEGDDPKSFHRLNLDGTVRLFEAAKRAGTRRCVFLSSRAAYGDYPPGIELVETMLPKPETLYGQIKLDAEGALTHLSAPGFAGVSLRATGVYGDLTPGKWDDLIADYLAGRPVAARAGTEVHGRDLGRAVRLMLETESTRISGEVFNISDITVDTQDILAPIRRETSGPHALPPPADKAALNPMSTAKIRALGWMPGGTPLFEETMRRLAAALPVSPRHRSAQDRQASSSGGRQPQTGTT	failed
SLENERLIKMSRFSERGYVVRENGPVYFTKDMDKTVKWFEEILGWSGDIVARDDEGFGDYGCVFDYPSEVAVAHLTPFRGFHLFKGEPIKGVAGFMMIEGIDALHKYVKENGWDQISDIYTQPWGARECSITTTDGCILRFFESIQEG	not failed
MYEAGLAEGESAYGHGGYISVPELPAGVAVRNSRRPDIIQESSYLRILAPAGGWLAAATLEKLADCAETYGRGLVHLTSGGTIEIYTGREQMLPLVRELNSGGLDVGSTGDDLRCLTACCGPVRCEHALVDAPALATYLGQRFIDDQQYPGYPQKVKSAVAGCPNDCIRAMMQKDHSFIGVYRDWPMVDGEMLAAWREKGGDLNGLLAACPAGALTLVGDTLEVDKERCWRCMACINYCPAIRPGRERGVAWVAGGKYGHRGPQGPMVGFVLVPFIPVADDDYTAVGDIFGAFLEFWADNAKKKERVGDFIARVGPLKILRELGLEAQPQILLSPKRNVY	failed
MKIPIILTLMLFSLGFIFGFISINNLSKINDKDLSNYIPNIQFNFPSILTNNLKVIFLMLAGSITFGLSTFINLIFNGFNVGVLIGSISLTNEPLKLITALILPHGIFEISAMLISAVAGFKIPYKVTLYLLDKKEKPLTEEDIKDFLKLSLISIILIVIAAFIEVYITPKIATYLLT	failed
MVQEIIVDSGDIEFLTTPKEYKQQLLSLIECARQRIFITALYLQDDEAGREILHALYQAKANFPTIEINIFVDFNRGQRGLIGEKASLGNRALYLKLAHEYPHTVNIYGVAVKRKELEHHHHHH	failed
MAVEEFNQNLNEIMKFKECNITVDTCVVIDGRITELISDGTIEKCTIIVPEAVISELEAQANKGREIGYFGIEELKKLVKVAKENEMVLEYYGERPSTGEVSLAKAGEIDAMIRKVAKDTNSILFTSDRIQYNLAIAQNINAHFLKVHEEKVDLKLV	failed
MVNTRNIIRQFTPNWFTTIMGTGVVAIVLGHFSELHTLGAALWLINTCLFCVFCILYMLRWSLFPHEARQIFHHPSMSLFLGAIPMALATLINGLLMYGNTVFGQHLPQLALWLWYIDVVLVISIGWVVPYFMFSRQQHHLHSITAMWLLPIVAAEVAAATGGLLVAEFVHSTQAISILWLSYMLWGMSVLPAFAILSLLILRLALHKLPEKELAISSWLSIGPIGTGALAMMLLGQHAPDVLQSIGMQSFGIFLQQAAKLISLVLLGCGVWWLGIAMFASLHHLKHGIPFNLGWWGLTFPLGVFTLALSQLGQLLGWNAFDHIAVILSVILVGLWSCVAVKTIQGAYRGQLFFSPCLQQLQQQQKACAQSETA	failed
